Measurements from paper PMC4759549.

Legend:
[1] = target: STY3178, a yfdX protein from Salmonella Typhi (Salmonella Typhi (CT18)); assay: SEC
[2] = target: STY3178, a yfdX protein from Salmonella Typhi (Salmonella Typhi (CT18)); assay: NMR relaxation (1D 1H-15N T1 and T2, rotational correlation time)

STY3178, a yfdX protein from Salmonella Typhi (natural protein)
stoichiometry N [1]: 3
stoichiometry N [2]: 3
